This assay has as its target LRP1 on wild-type CHO-K1 cells. Nature of the assay: cell-based or functional assay.

In turn, “mini-RAPc (Hep1) combined with equimolar streptavidin-saporin conjugate (ZAP) (from UniProt P22629 37-163)” yielded a reduction of viable cell number (MTT assay, 100 nM, 48 hours) of 40%.
